Read-outs that look alike come from different tables or passages of the source.
T1: full-length C. elegans MEI-1 (C. elegans, UniProt P34808 1-472)
T1 sequence (looked up): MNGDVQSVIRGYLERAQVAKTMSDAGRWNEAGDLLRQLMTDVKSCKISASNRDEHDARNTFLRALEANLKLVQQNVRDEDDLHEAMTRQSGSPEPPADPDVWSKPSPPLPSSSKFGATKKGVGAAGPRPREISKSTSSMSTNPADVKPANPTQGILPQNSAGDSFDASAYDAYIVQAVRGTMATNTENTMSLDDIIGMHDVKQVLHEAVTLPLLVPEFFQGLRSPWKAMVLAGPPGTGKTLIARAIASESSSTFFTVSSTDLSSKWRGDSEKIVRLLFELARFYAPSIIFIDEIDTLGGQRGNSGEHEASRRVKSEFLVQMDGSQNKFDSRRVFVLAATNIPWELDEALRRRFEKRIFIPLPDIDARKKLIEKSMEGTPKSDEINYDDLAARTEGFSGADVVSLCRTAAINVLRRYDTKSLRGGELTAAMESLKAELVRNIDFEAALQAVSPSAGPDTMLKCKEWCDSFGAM

B1: full length human KATNAL1 (E308Q) (enzyme, UniProt Q9BW62 1-490, looked up)
chain: MNLAEICDNAKKGREYALLGNYDSSMVYYQGVMQQIQRHCQSVRDPAIKGKWQQVRQELLEEYEQVKSIVSTLESFKIDKPPDFPVSCQDEPFRDPAVWPPPVPAEHRAPPQIRRPNREVRPLRKEMAGVGARGPVGRAHPISKSEKPSTSRDKDYRARGRDDKGRKNMQDGASDGEMPKFDGAGYDKDLVEALERDIVSRNPSIHWDDIADLEEAKKLLREAVVLPMWMPDFFKGIRRPWKGVLMVGPPGTGKTMLAKAVATECGTTFFNVSSSTLTSKYRGESEKLVRLLFEMARFYAPTTIFIDQIDSICSRRGTSDEHEASRRVKSELLIQMDGVGGALENDDPSKMVMVLAATNFPWDIDEALRRRLEKRIYIPLPTAKGRAELLKINLREVELDPDIQLEDIAEKIEGYSGADITNVCRDASLMAMRRRINGLSPEEIRALSKEELQMPVTKGDFELALKKIAKSVSAADLEKYEKWMVEFGSA

Tests used:
Assay in all cases: SEC-MALS
SEC-MALS [1] = target: the molecule itself
SEC-MALS [2] = target: the molecule itself; remark: listed apart in the source
[3] = target: B1
[4] = target: full length human KATNAL1 (human, UniProt Q9BW62 1-490)
[5] = target: T1, full-length C. elegans MEI-1

| Binder | stoichiometry N (SEC-MALS [1]) | stoichiometry N (SEC-MALS [2]) | further results |
| --- | --- | --- | --- |
| wild-type KATNAL1/B1-con80 complex (full length human KATNAL1 with the con80 domain, residues 411-655, of human KATNB1) (complex) chain 1: MNLAEICDNAKKGREYALLGNYDSSMVYYQGVMQQIQRHCQSVRDPAIKGKWQQVRQELLEEYEQVKSIVSTLESFKIDKPPDFPVSCQDEPFRDPAVWPPPVPAEHRAPPQIRRPNREVRPLRKEMAGVGARGPVGRAHPISKSEKPSTSRDKDYRARGRDDKGRKNMQDGASDGEMPKFDGAGYDKDLVEALERDIVSRNPSIHWDDIADLEEAKKLLREAVVLPMWMPDFFKGIRRPWKGVLMVGPPGTGKTMLAKAVATECGTTFFNVSSSTLTSKYRGESEKLVRLLFEMARFYAPTTIFIDEIDSICSRRGTSDEHEASRRVKSELLIQMDGVGGALENDDPSKMVMVLAATNFPWDIDEALRRRLEKRIYIPLPTAKGRAELLKINLREVELDPDIQLEDIAEKIEGYSGADITNVCRDASLMAMRRRINGLSPEEIRALSKEELQMPVTKGDFELALKKIAKSVSAADLEKYEKWMVEFGSA chain 2: AATAKEAAKPSPAMDVQFPVPNLEVLPRPPVVASTPAPKAEPAIIPATRNEPIGLKASDFLPAVKIPQQAELVDEDAMSQIRKGHDTMCVVLTSRHKNLDTVRAVWTMGDIKTSVDSAVAINDLSVVVDLLNIVNQKASLWKLDLCTTVLPQIEKLLQSKYESYVQTGCTSLKLILQRFLPLITDMLAAPPSVGVDISREERLHKCRLCYKQLKSISGLVKSKSGLSGRHGSTFRELHLLMASLD | 2 |  |  |
| KATNAL1 (E308Q)/B1-con80 complex (complex, human) chain 1: MNLAEICDNAKKGREYALLGNYDSSMVYYQGVMQQIQRHCQSVRDPAIKGKWQQVRQELLEEYEQVKSIVSTLESFKIDKPPDFPVSCQDEPFRDPAVWPPPVPAEHRAPPQIRRPNREVRPLRKEMAGVGARGPVGRAHPISKSEKPSTSRDKDYRARGRDDKGRKNMQDGASDGEMPKFDGAGYDKDLVEALERDIVSRNPSIHWDDIADLEEAKKLLREAVVLPMWMPDFFKGIRRPWKGVLMVGPPGTGKTMLAKAVATECGTTFFNVSSSTLTSKYRGESEKLVRLLFEMARFYAPTTIFIDQIDSICSRRGTSDEHEASRRVKSELLIQMDGVGGALENDDPSKMVMVLAATNFPWDIDEALRRRLEKRIYIPLPTAKGRAELLKINLREVELDPDIQLEDIAEKIEGYSGADITNVCRDASLMAMRRRINGLSPEEIRALSKEELQMPVTKGDFELALKKIAKSVSAADLEKYEKWMVEFGSA chain 2: AATAKEAAKPSPAMDVQFPVPNLEVLPRPPVVASTPAPKAEPAIIPATRNEPIGLKASDFLPAVKIPQQAELVDEDAMSQIRKGHDTMCVVLTSRHKNLDTVRAVWTMGDIKTSVDSAVAINDLSVVVDLLNIVNQKASLWKLDLCTTVLPQIEKLLQSKYESYVQTGCTSLKLILQRFLPLITDMLAAPPSVGVDISREERLHKCRLCYKQLKSISGLVKSKSGLSGRHGSTFRELHLLMASLD | 6 | 2 |  |
| B1 | 6 |  |  |
| con80 domain (residues 411-655) of human KATNB1 (domain or fragment, UniProt Q9BVA0 411-655, looked up) AATAKEAAKPSPAMDVQFPVPNLEVLPRPPVVASTPAPKAEPAIIPATRNEPIGLKASDFLPAVKIPQQAELVDEDAMSQIRKGHDTMCVVLTSRHKNLDTVRAVWTMGDIKTSVDSAVAINDLSVVVDLLNIVNQKASLWKLDLCTTVLPQIEKLLQSKYESYVQTGCTSLKLILQRFLPLITDMLAAPPSVGVDISREERLHKCRLCYKQLKSISGLVKSKSGLSGRHGSTFRELHLLMASLD |  |  | binding result [3]: binds; binding result [4]: binds |
| full-length C. elegans MEI-2 (natural protein, UniProt O44740 1-280, looked up) MSGLDDRKKLTHAKNRKPLNDIPKSAENRPNTRSTSSRRGAEKDVPITFIGSSRTVKADLPEFTNTRSRRPLHSESKKELSRNPVSRGEEHSSSLPKSSPESSVSVMSSNASLWSACTEEVNKIGVCAKRESRNLRVYKMKSFTSNMEQILSNDNQLAPTVIRILNSRNSWCLNSCHACLTFIMENITSDNYGKRSACLKALASITNSLLDTIIGFASTKTRRIGVDVVAEERAAKATECIHNFRKIVKNRDKIYKQIDQETIYKLDAILERLKKVSSHK |  |  | binding result [5]: binds |
| C. elegans MEI-1/MEI-2 complex (full-length MEI-1 with full-length MEI-2) (complex) chain 1: MNGDVQSVIRGYLERAQVAKTMSDAGRWNEAGDLLRQLMTDVKSCKISASNRDEHDARNTFLRALEANLKLVQQNVRDEDDLHEAMTRQSGSPEPPADPDVWSKPSPPLPSSSKFGATKKGVGAAGPRPREISKSTSSMSTNPADVKPANPTQGILPQNSAGDSFDASAYDAYIVQAVRGTMATNTENTMSLDDIIGMHDVKQVLHEAVTLPLLVPEFFQGLRSPWKAMVLAGPPGTGKTLIARAIASESSSTFFTVSSTDLSSKWRGDSEKIVRLLFELARFYAPSIIFIDEIDTLGGQRGNSGEHEASRRVKSEFLVQMDGSQNKFDSRRVFVLAATNIPWELDEALRRRFEKRIFIPLPDIDARKKLIEKSMEGTPKSDEINYDDLAARTEGFSGADVVSLCRTAAINVLRRYDTKSLRGGELTAAMESLKAELVRNIDFEAALQAVSPSAGPDTMLKCKEWCDSFGAM chain 2: MSGLDDRKKLTHAKNRKPLNDIPKSAENRPNTRSTSSRRGAEKDVPITFIGSSRTVKADLPEFTNTRSRRPLHSESKKELSRNPVSRGEEHSSSLPKSSPESSVSVMSSNASLWSACTEEVNKIGVCAKRESRNLRVYKMKSFTSNMEQILSNDNQLAPTVIRILNSRNSWCLNSCHACLTFIMENITSDNYGKRSACLKALASITNSLLDTIIGFASTKTRRIGVDVVAEERAAKATECIHNFRKIVKNRDKIYKQIDQETIYKLDAILERLKKVSSHK |  | 2 |  |
